Like-named read-outs stand apart in the source and are kept apart here.
Assays:
[1] = target: L43A ubiquitin (UniProt P0CG48); test: NMR titration
[2] = target: L43A ubiquitin (UniProt P0CG48); test: NMR titration; remark: listed apart in the source
[3] = target: L43A ubiquitin (UniProt P0CG48); test: 15N T1 relaxation

Substance	stoichiometry N [1]	Kd [1]	Kd [2]	stoichiometry N [3]
UBA2 domain of hHR23a (from UniProt P54725 1-363) (domain or fragment)	1	–	–	–
ubiquilin-1 UBA domain (UQ1-UBA) construct (from UniProt Q9UMX0 541-586) (domain or fragment)	–	26 µM	28 µM	1
